Among the data in publication PMC4315616 are Kd and binding signal values, retold here.

Data set [1] deals with T1, SNV nucleocapsid protein N wild type (SNVN) (Sin Nombre hantavirus, UniProt Q89462 1-428).
T1 sequence: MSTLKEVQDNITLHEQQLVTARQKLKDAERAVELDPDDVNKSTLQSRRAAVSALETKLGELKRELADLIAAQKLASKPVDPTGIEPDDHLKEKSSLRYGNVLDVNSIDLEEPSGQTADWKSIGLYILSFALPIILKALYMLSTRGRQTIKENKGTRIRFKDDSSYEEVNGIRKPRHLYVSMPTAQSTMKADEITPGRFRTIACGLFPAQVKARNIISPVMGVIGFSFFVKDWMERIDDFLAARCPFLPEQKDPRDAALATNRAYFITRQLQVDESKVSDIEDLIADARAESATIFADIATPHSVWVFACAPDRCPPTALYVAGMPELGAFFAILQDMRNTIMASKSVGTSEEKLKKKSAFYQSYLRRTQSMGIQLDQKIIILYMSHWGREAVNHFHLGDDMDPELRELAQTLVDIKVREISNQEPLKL
The experiment in a line: BLI. On the technique in general: In BLI a coated tip is dipped into the sample, and binding shifts an interference pattern.

The target in data set [2] is T1, SNV nucleocapsid protein N wild type …. The data set is described as follows: filter binding.
Data set [3] has the same target. The data set is described as follows: BLI. This is another data set of the same source.
Data set [4] has the same target. The data set is described as follows: filter binding. This is another data set of the same source.

The Kd is a measure of binding affinity in units of concentration. A lower Kd goes with a tighter complex.

Regarding GAUAUGUGAG (ssRNA, 5' mRNA cap (enzymatic, Cell Script)) [capped decameric RNA], the dissociation constant (Kd) stood at 107.8 ± 0.7 nM in data set [1], 120 ± 0.6 nM in data set [2] and 106 ± 5.7 nM in data set [3].

GAUAUGUGAG (ssRNA) [uncapped decameric RNA] yielded a dissociation constant (Kd) in data set [3] of 477 ± 6.8 nM. Also, in data set [4], the binding signal was ~4 fold lower affinity than capped.
